Biological target: T1, KHSRP130-503 (four KH domains) (Homo sapiens, UniProt Q92945 130-503)
T1 sequence: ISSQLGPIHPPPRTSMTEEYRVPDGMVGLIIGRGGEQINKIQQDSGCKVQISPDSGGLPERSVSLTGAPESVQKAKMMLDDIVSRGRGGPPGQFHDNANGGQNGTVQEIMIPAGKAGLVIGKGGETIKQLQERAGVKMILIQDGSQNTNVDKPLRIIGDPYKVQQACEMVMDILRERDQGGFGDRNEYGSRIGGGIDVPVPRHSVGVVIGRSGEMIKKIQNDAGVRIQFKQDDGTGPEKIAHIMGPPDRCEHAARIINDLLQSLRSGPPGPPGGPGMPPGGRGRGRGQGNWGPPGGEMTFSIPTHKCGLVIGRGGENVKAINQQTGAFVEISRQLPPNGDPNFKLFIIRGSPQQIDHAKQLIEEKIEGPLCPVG
Assay: SPR; 25 C, single-cycle kinetics; SPR at 25 C, 1-20 uM G4 over immobilized protein (buffer not in the material); NMR at 25 C (298 K), protein in 5 mM KH2PO4/K2HPO4 pH 7.0, 20 mM KCl
Conditions: protein: recombinant, tags: N-terminal His-tag (pET-28a), TEV-cleaved

AGGGAGGGCGCTGGGAGGAGGG (structured_DNA) [c-Kit1]
Kd (parallel G4, intramolecular): 190 ± 90 nM

CGGGCGGGCGCTAGGGAGGGT (structured_DNA) [c-Kit2]
Kd (parallel G4, intramolecular): 56 ± 8 nM

TGAGGGTGGGTAGGGTGGGTAA (structured_DNA) [c-Myc]
Kd (parallel G4, intramolecular): 130 ± 25 nM

GGGCGCGGGAGGAATTGGGCGGG (structured_DNA) [Bcl-2]
Kd (hybrid G4, intramolecular): 2000 ± 980 nM

TTGGGTTAGGGTTAGGGTTAGGGA (structured_DNA) [mTel24]
Kd (hybrid G4, intramolecular): 1470 ± 480 nM

Reference: paper PMC11848572, “Expanding the Functions of KHSRP Protein: Insights into DNA G‐Quadruplex Binding”
